# Earlier results in patent US20110020368A1, “TREATING CANCER BY DOWN-REGULATING FRIZZLED-4 AND/OR FRIZZLED-1” (priority 2008, published 2011).
# B1: sFRP1: extracellular inhibitor of WNT signaling, which competes with FZD receptors for ligand binding (protein, UniProt Q8N474 32-314, looked up)
# Secreted frizzled-related …: SEYDYVSFQSDIGPYQSGRFYTKPPQCVDIPADLRLCHNVGYKKMVLPNLLEHETMAEVKQQASSWVPLLNKNCHAGTQVFLCSLFAPVCLDRPIYPCRWLCEAVRDSCEPVMQFFGFYWPEMLKCDKFPEGDVCIAMTPPNATEASKPQGTTVCPPCDNELKSEAIIEHLCASEFALRMKIKEVKKENGDKKIVPKKKKPLKLGPIKKKDLKKLVLYLKNGADCPCHQLDNLSHHFLIMGRKVKSQYLLTAIHKWDKKNKEFKNFMKKMKNHECPTFQSVFK
# System: breast tumor cell lines
# Conditions: interference with autocrine WNT pathway activation
molecule,measurement,value
B1,Effect on proliferation of breast tumor cell lines,blocks proliferation
